Source: publication PMC6291252 (PLoS ONE, 2018)

Target: Recombinant TcdB (aa 1751–2366), biotinylated (Clostridioides difficile; strain of …, UniProt P18177)
Assay: SPR
Details: both partners purified

Sequence of Recombinant TcdB (aa 1751–2366), biotinylated (P18177 1751-2366): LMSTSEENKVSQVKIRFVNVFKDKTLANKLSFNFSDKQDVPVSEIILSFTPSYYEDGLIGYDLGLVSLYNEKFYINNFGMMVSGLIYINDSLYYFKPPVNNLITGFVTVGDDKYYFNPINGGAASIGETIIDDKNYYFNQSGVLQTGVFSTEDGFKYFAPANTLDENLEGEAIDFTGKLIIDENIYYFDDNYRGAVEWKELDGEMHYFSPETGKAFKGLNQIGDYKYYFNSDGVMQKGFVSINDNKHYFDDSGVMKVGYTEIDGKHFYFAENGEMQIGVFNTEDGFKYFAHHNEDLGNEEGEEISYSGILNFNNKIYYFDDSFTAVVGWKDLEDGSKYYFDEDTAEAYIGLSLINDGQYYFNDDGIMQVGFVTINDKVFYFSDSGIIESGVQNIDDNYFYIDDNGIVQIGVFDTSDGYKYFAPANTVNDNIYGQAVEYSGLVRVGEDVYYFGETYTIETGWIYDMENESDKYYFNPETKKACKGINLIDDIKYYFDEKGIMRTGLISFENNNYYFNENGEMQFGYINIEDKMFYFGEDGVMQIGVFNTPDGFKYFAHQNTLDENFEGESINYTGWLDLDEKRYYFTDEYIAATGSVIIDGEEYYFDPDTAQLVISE

B1: B39 (VHH)
VHH: QVQLVESGGGLVQAGGSLRLSCAASGLTFSRYVMGWFRQAPGKEREFVAAITWGGTPNYADSVKGRFTISRDNSKNTQYLQMNSLKPEDTAVYYCAAGLGWDSRYSQSYNYWGQGTQVTVSS
- Kd: 0.07 nM
- koff: 0.00256 s⁻¹
- kon: 3.44e+07 M⁻¹ s⁻¹
